2 molecules from patent US20250346904A1, “CCR5 and CD4 siRNA-TARGETED PHOSPHOLIPID NANOSOMES THERAPEUTICS FOR TREATMENT OF HIV-1 AND OTHER DISEASES” (priority 2024, published 2025) can be followed below.

The subject of test [1] is HIV-1RF virus (NIH ARP Cat #2804, dual-tropic). The test can be described thus: Knockdown by BFU assay on P4/R5 cells, HIV-1RF, log dilutions (RNA-I-47). In kind it is cell-based. Particulars: Human immunodeficiency virus 1, P4/R5, each drug as part of the Raltegravir + Efavirenz cocktail, read-out: Inhibitory Dose 50 (ID50) of the cocktail. The method, then:
MAGI P4/R5 cells carry the β-galactosidase gene under control of the HIV LTRs (Long Terminal Repeats). […] Briefly, 96 well plates of MAGI P4/R5 cells were infected with HIV-1 and fixed 2-3 days post infection with a fixative containing 1% formaldehyde and 0.2% glutaraldehyde. Fixed cells were washed with PBS (Phosphate Buffered Saline) and stained for β-galactosidase activity using X-gal at 1 mg/mL in PBS with 5 mM potassium ferricyanide and 5 mM potassium ferrocyanide as per published procedures. The cells were usually stained 3 hours to overnight, the number of blue foci counted under the microscope and reported as Blue Focus-forming Units (BFUs).
In this study (RNA-I-47), 8 siRNA nanosomal formulations and 2 controls were evaluated for HIV-1 inhibition on P4/R5 cells using the BFU assay. The test formulations were the same 3 CD4_siRNAs, 3 CCR5_siRNAs, RANTES protein alone and RANTES protein co-encapsulated with a CCR5_siRNA in phospholipid nanosomes, tested previously in RNA-I-50b and RNA-I-51. The HIV-1 virus used was NIH ARP Cat #2804, a member of a panel HIV-1RF viruses and is dual-tropic with the ability to infect both CCR5 and CXCR4 receptor expressing cells.
This study was similar to the previous studies with a few differences. […]

Another test has as its system HIV-1 RF, NIH Cat #2804. The test is described as follows: Knockdown by BFU assay, HIV-1 RF, with and without lipofectamine (RNA-I-61). It is filed as cell-based. Particulars: Naked (unencapsulated), Presence of Lipofectamine. The protocol: A knockdown study (RNA-I-61) of the 8 nanoencapsulated and the corresponding unencapsulated (naked) siRNA preparations along with two controls described in the previous experiments was performed using freshly reconstituted materials with HIV-1 RF, NIH Cat #2804, diluted to contain ˜100 Blue Focus forming Units (BFUs) per dose of inoculum. […] The objective of this experiment was to test a range of concentrations of the inhibitors to determine the ID50 for each preparation based on the siRNA content. Since the nanosomal materials were freshly reconstituted, they were recharacterized.
The reconstituted samples as well as the naked siRNA preparations were tested for virus infection inhibitory activity. The inhibition of infectivity was measured by counting the number of blue foci due to the induced B-galactosidase activity in the host MAGI P4/R5 cells by the infecting HIV. […] The number of BFUs for each treatment at various dilutions were used to calculate the % inhibition from the corresponding dilution for the Negative_siRNA samples. The inhibitor activity was also quantified by measuring the p24 antigen concentration in each of the wells.
Infectivity Assay by BFUs: The percent inhibitions obtained with various Nanosomal_siRNA formulations versus Negative_siRNA formulations in the presence of lipofectamine are listed in Table 12.
50% Inhibitory Dose (ID50) Values: The data from RNA quantification using gel analysis and the infectivity results were used to plot dose response curves and calculate the ID50 (a.k.a. Inhibitory Concentration that results in 50% inhibition, [IC50]) values.

As to `O=C1Nc2ccc(Cl)cc2[C@@](C#CC2CC2)(C(F)(F)F)O1` [Efavirenz], the IC50 in test [1] was found to be 160 pM.

B1: RANTES: CCL5, a CC chemokine with a molecular weight of 7,900, natural ligand of CCR5; unencapsulated in Table 13 (protein, UniProt P13501 24-91, looked up)
C-C motif chemokine 5: SPYSSDTTPCCFAYIARPLPRAHIKEYFYTSGKCSNPAVVFVTRKNRQVCANPEKKWVREYINSLEMS
modifications: ends and bridges not checked
As for B1, the “Inhibition of BFUs by Naked_siRNA vs Negative_siRNA” value in the test on HIV-1 RF, NIH Cat #2804 (treatment dilution 1) is 0%; in the test on HIV-1 RF, NIH Cat #2804 (treatment dilution 5), 34%; in the test with HIV-1 RF, NIH Cat #2804 (treatment dilution 15), 18%; with HIV-1 RF, NIH Cat #2804 (treatment dilution 45) it was 0%; in the test on HIV-1 RF, NIH Cat #2804 (treatment dilution 135) it was 0%.
